The results in this text go back to paper PMC12749748 (Nature Communications, 2025).

This series concerns the molecule itself. Put plainly: cryo-EM structure; IRE1:G6374:VCB complex purified by SEC, cross-linked with 500 µM BS3, 0.005% CTAB added; map at ~2.6 Å. (SEC sorts molecules by how far they enter the pores of the column.)

B1: Recombinant human IRE1.KR (G547-L977) (domain or fragment, UniProt O75460 547-977, looked up)
chain: GSSPSLEQDDGDEETSVVIVGKISFCPKDVLGHGAEGTIVYRGMFDNRDVAVKRILPECFSFADREVQLLRESDEHPNVIRYFCTEKDRQFQYIAIELCAATLQEYVEQKDFAHLGLEPITLLQQTTSGLAHLHSLNIVHRDLKPHNILISMPNAHGKIKAMISDFGLCKKLAVGRHSFSRRSGVPGTEGWIAPEMLSEDCKENPTYTVDIFSAGCVFYYVISEGSHPFGKSLQRQANILLGACSLDCLHPEKHEDVIARELIEKMIAMDPQKRPSAKHVLKHPFFWSLEKQLQFFQDVSDRIEKESLDGPIVKQLERGGRAVVKMDWRENITVPLQTDLRKFRTYKGGSVRDLLRAMRNKKHHYRELPAEVRETLGSLPDDFVCYFTSRFPHLLAHTYRAMELCSHERLFQPYYFHEPPEPQPPVTPDAL
On to B1, for which the stoichiometry N – broadly, the number of molecules, sites or subunits per partner or assembly – amounted to 2.
